In the assay the target is T1, GST (glutathione S-transferase) alone (UniProt P08515 1-218 = GST).
T1 construct: Control probe in the west western blots
In words: west western blot of his-tagged WTIP fragments (E. coli lysate) probed with GST. (In general: Immunoblotting shows a protein as a band on a membrane.)

The values below come from US20030162220A1 (HARUO SUGIYAMA, published 2003).

T1 sequence (P08515 whole entry): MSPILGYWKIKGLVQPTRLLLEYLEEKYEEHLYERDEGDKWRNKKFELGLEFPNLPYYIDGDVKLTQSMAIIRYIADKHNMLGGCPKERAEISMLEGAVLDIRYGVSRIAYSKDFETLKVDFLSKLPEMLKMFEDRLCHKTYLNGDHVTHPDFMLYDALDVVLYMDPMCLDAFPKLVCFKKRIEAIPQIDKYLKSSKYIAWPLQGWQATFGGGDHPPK

B1: WTIP 1-178, polypeptide containing the WW domain at the N-terminal end of WTIP with a histidine tag at the C-terminal (other)
chain: MRPGTGAERGGLMVSEMESHPPSQGPGDGERRLSGSSLCSGSWVSADGFLRRRPSMGHPGMHYAPMGMHPMGQRANMPPVPHGMMPQMMPPMGGPPMGQMPGMMSSVMPGMMMSHMSQASMQPALPPGVNSMDVAAGTASGAKSMWTEHKSPDGRTYYYNTETKQSTWEKPDDLKTPA
notes: Expressed in E. coli; whole-cell lysate run on SDS-PAGE and blotted; not shown: C-terminal his tag and XhoI junction residues from pET-21b(+)
Take B1: the binding result is given as “no binding”.

B2: WTIP 1-98, polypeptide containing no WW domains with a histidine tag at the C-terminal (other)
chain: MRPGTGAERGGLMVSEMESHPPSQGPGDGERRLSGSSLCSGSWVSADGFLRRRPSMGHPGMHYAPMGMHPMGQRANMPPVPHGMMPQMMPPMGGPPMG
notes: Expressed in E. coli; whole-cell lysate run on SDS-PAGE and blotted; also called HYPA/FBP11 amino acids 1-98; mutant containing no WW domain; not shown: C-terminal his tag and XhoI junction residues from pET-21b(+)
As to B2, the binding result is reported as “no binding”.
